Assay results from patent publication US20050079559.

Target: bacterial recombinant GST-Smad3 (UniProt P84022)
Sequence (P84022 whole entry, looked up): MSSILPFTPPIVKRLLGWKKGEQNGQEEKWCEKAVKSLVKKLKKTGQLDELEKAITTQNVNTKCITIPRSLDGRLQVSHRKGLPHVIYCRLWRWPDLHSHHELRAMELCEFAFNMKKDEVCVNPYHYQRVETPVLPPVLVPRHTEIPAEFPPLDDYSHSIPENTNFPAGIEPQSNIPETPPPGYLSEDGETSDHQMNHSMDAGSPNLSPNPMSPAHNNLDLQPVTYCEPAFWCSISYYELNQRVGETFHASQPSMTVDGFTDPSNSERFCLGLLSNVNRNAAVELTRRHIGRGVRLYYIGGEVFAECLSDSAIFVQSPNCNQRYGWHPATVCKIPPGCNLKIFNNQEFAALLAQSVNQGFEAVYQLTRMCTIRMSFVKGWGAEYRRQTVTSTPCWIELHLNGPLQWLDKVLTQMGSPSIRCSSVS

Substance | phosphorylation of recombinant Smad3 in an in vitro kinase assay, detected by immunoblotting
phosphorylated (active) JNK | the linker region of Smad3 was directly phosphorylated by p38 and JNK
phosphorylated (active) p38 | the linker region of Smad3 was directly phosphorylated by p38 and JNK
